Assay results taken from paper PMC3413214, “Structural and biochemical characterization of a trapped coenzyme A adduct of Caenorhabditis elegans glucosamine-6-phosphate N-acetyltransferase 1” (Acta Crystallographica Section D: Biological Crystallography, 2012).
Changes are numbered by the printed parent chain. Numbers in names are those of the source.

B1: CeGNA1 (Caenorhabditis elegans) (protein)
chain: MSHIFDASVLAPHIPSNLPDNFKVRPLAKDDFSKGYVDLLSQLTSVGNLDQEAFEKRFEAMRTSVPNYHIVVIEDSNSQKVVASASLVVEMKFIHGAGSRGRVEDVVVDTEMRRQKLGAVLLKTLVSLGKSLGVYKISLECVPELLPFYSQFGFQDDCNFMTQRF
notes: full-length, 165 residues; GST fusion from pGEX-6P-1 in E. coli BL21(DE3) pLysS, GST cut with PreScission protease; homodimer; 18 876 Da by MALDI
B2: CeGNA1 (Caenorhabditis elegans; C141S) (protein)
chain: B1 chain with C141S
notes: as for B1

Substrate: CC(=O)SCCNC(=O)CCNC(=O)[C@H](O)C(C)(C)COP(=O)(O)OP(=O)(O)OC[C@H]1O[C@@H](n2cnc3c(N)ncnc32)[C@H](O)[C@@H]1OP(=O)(O)O
Assay: purified protein
Type: biochemical, Caenorhabditis elegans
Conditions: GlcN-6P constant, 25 mM Tris-HCl pH 7.5, 250 mM NaCl, 2 mM EDTA, 5% glycerol, 293 K, 20.0 °C

Protein | Km (3 nM enzyme) [µM] | kcat (3 nM enzyme) [s⁻¹] | kcat/Km (3 nM enzyme) [M⁻¹ s⁻¹] | Km (10 nM enzyme) [µM] | kcat (10 nM enzyme) [s⁻¹] | kcat/Km (10 nM enzyme) [M⁻¹ s⁻¹]
B1 | 192 ± 16 | 252 | 1.3e+06 | – | – | –
B2 | – | – | – | 261 ± 33 | 48 | 200000
